{
  "source": "the supplement of paper PMC10598134",
  "test": "collision cross section of modified peptide (TIMS, N2, iRT-aligned); higher = larger / more extended gas-phase ion",
  "method": "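1/K0 was aligned run-wise to spiked iRT peptides and converted to CCS in N2 (Mason-Schamp). Values are the mean of 1-3 technical replicates for the most abundant feature at each charge state.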",
  "key": {"[1]": {"conditions": "charge state: 2, modification: Malonyl"}, "[2]": {"conditions": "charge state: 2, modification: GlyGly (K)"}, "[3]": {"conditions": "charge state: 3, modification: GlyGly (K)"}, "[4]": {"conditions": "charge state: 2, modification: Dimethyl (K)"}, "[5]": {"conditions": "charge state: 3, modification: Dimethyl (K)"}, "[6]": {"conditions": "charge state: 2, modification: Nitro (Y)"}, "[7]": {"conditions": "charge state: 3, modification: Trimethyl (K)"}, "[8]": {"conditions": "charge state: 3, modification: Citrullination (R)"}, "[9]": {"conditions": "charge state: 3, modification: HexNAc (ST)"}, "[10]": {"conditions": "charge state: 2, modification: hydroxyisobutyryl"}, "[11]": {"conditions": "charge state: 2, modification: Acetyl (K)"}, "[12]": {"conditions": "charge state: 2, modification: Hydroxyproline"}, "[13]": {"conditions": "charge state: 3, modification: Hydroxyproline"}, "[14]": {"conditions": "charge state: 2, modification: Trimethyl (K)"}, "[15]": {"conditions": "charge state: 2, modification: HexNAc (ST)"}},
  "note": "± gives the standard deviation.",
  "data": [
    {"sequence": "VNALKNLQVK [_VNALK(Malonyl)NLQVK_]", "values": [
      {"measurement": "collision cross section", "setting": "[1]", "result": "368.09 ± 0.62", "unit": "Å²"}
    ]},
    {"sequence": "LQEKVESAQSEQK [_LQEK(GlyGly (K))VESAQSEQK_]", "values": [
      {"measurement": "collision cross section", "setting": "[2]", "result": "427.55 ± 1.4", "unit": "Å²"},
      {"measurement": "collision cross section", "setting": "[3]", "result": "508.34 ± 0.87", "unit": "Å²"}
    ]},
    {"sequence": "GTISAPGKVVTAAAQAK [_GTISAPGK(Dimethyl (K))VVTAAAQAK_]", "values": [
      {"measurement": "collision cross section", "setting": "[4]", "result": "470.82 ± 0.68", "unit": "Å²"},
      {"measurement": "collision cross section", "setting": "[5]", "result": "493.04 ± 1.7", "unit": "Å²"}
    ]},
    {"sequence": "YILIPASQQPK [_Y(Phospho (Y))ILIPASQQPK_]", "values": [
      {"measurement": "collision cross section", "setting": "charge state: 2, modification: Phospho (Y)", "result": "405.41 ± 0.64", "unit": "Å²"}
    ]},
    {"sequence": "LQIASDENYK [_LQIASDENY(Nitro (Y))K_]", "values": [
      {"measurement": "collision cross section", "setting": "[6]", "result": "364.55 ± 1.2", "unit": "Å²"}
    ]},
    {"sequence": "TQDQISNIKYHEEFEK [_TQDQISNIK(Trimethyl (K))YHEEFEK_]", "values": [
      {"measurement": "collision cross section", "setting": "[7]", "result": "544.72 ± 0.9", "unit": "Å²"}
    ]},
    {"sequence": "VLDSGAPIKIPVGPETLGR [_VLDSGAPIK(Dimethyl (K))IPVGPETLGR_]", "values": [
      {"measurement": "collision cross section", "setting": "[5]", "result": "506.24 ± 0.56", "unit": "Å²"}
    ]},
    {"sequence": "SLEEEGAAHSGKR [_SLEEEGAAHSGK(Succinyl)R_]", "values": [
      {"measurement": "collision cross section", "setting": "charge state: 2, modification: Succinyl", "result": "416.07 ± 1.8", "unit": "Å²"},
      {"measurement": "collision cross section", "setting": "charge state: 3, modification: Succinyl", "result": "470.94 ± 2.7", "unit": "Å²"}
    ]},
    {"sequence": "TVSKVDDFLANEAK [_TVSK(Dimethyl (K))VDDFLANEAK_]", "values": [
      {"measurement": "collision cross section", "setting": "[4]", "result": 415.63, "unit": "Å²"},
      {"measurement": "collision cross section", "setting": "[5]", "result": "482.42 ± 2.9", "unit": "Å²"}
    ]},
    {"sequence": "KYEEIDNAPEER [_K(GlyGly (K))YEEIDNAPEER_]", "values": [
      {"measurement": "collision cross section", "setting": "[2]", "result": "416.44 ± 0.85", "unit": "Å²"},
      {"measurement": "collision cross section", "setting": "[3]", "result": "499.05 ± 3", "unit": "Å²"}
    ]},
    {"sequence": "IQNGAQGIRFIYTR [_IQNGAQGIR(Citrullination (R))FIYTR_]", "values": [
      {"measurement": "collision cross section", "setting": "[8]", "result": 506.23, "unit": "Å²"}
    ]},
    {"sequence": "GVPRGVHLGSQGLQR [_GVPR(Citrullination (R))GVHLGSQGLQR_]", "values": [
      {"measurement": "collision cross section", "setting": "charge state: 2, modification: Citrullination (R)", "result": 439.96, "unit": "Å²"},
      {"measurement": "collision cross section", "setting": "[8]", "result": "482.18 ± 0.41", "unit": "Å²"}
    ]},
    {"sequence": "AAINQKLIETGER [_AAINQK(Crotonyl)LIETGER_]", "values": [
      {"measurement": "collision cross section", "setting": "charge state: 2, modification: Crotonyl", "result": "409.27 ± 0.81", "unit": "Å²"}
    ]},
    {"sequence": "ATVASSTQKFQDLGVK [_ATVASSTQK(Methyl (K))FQDLGVK_]", "values": [
      {"measurement": "collision cross section", "setting": "charge state: 2, modification: Methyl (K)", "result": "464.26 ± 2.2", "unit": "Å²"},
      {"measurement": "collision cross section", "setting": "charge state: 3, modification: Methyl (K)", "result": "478.87 ± 3.4", "unit": "Å²"}
    ]},
    {"sequence": "ALLQAKASGK [_ALLQAK(Butyryl)ASGK_]", "values": [
      {"measurement": "collision cross section", "setting": "charge state: 2, modification: Butyryl", "result": "352.22 ± 2.3", "unit": "Å²"}
    ]},
    {"sequence": "LGPNDQYK [_LGPNDQY(Nitro (Y))K_]", "values": [
      {"measurement": "collision cross section", "setting": "[6]", "result": "332.94 ± 1.8", "unit": "Å²"}
    ]},
    {"sequence": "TPLTHALPGLSEQEGQK [_T(HexNAc (ST))PLTHALPGLSEQEGQK_]", "values": [
      {"measurement": "collision cross section", "setting": "[9]", "result": "513.42 ± 0.96", "unit": "Å²"}
    ]},
    {"sequence": "VGIDTPDIDIHGPEGKLK [_VGIDTPDIDIHGPEGK(hydroxyisobutyryl)LK_]", "values": [
      {"measurement": "collision cross section", "setting": "[10]", "result": "500.35 ± 0.99", "unit": "Å²"},
      {"measurement": "collision cross section", "setting": "charge state: 3, modification: hydroxyisobutyryl", "result": "542.95 ± 2", "unit": "Å²"}
    ]},
    {"sequence": "INNFSADIKDSK [_INNFSADIK(Malonyl)DSK_]", "values": [
      {"measurement": "collision cross section", "setting": "[1]", "result": "398.58 ± 0.027", "unit": "Å²"}
    ]},
    {"sequence": "DYSSGFGGKYGVQADR [_DYSSGFGGK(Acetyl (K))YGVQADR_]", "values": [
      {"measurement": "collision cross section", "setting": "[11]", "result": "430.77 ± 2.2", "unit": "Å²"}
    ]},
    {"sequence": "IQQELQTAKK [_IQQELQTAK(GlyGly (K))K_]", "values": [
      {"measurement": "collision cross section", "setting": "[2]", "result": "381.49 ± 0.89", "unit": "Å²"},
      {"measurement": "collision cross section", "setting": "[3]", "result": "434.95 ± 2", "unit": "Å²"}
    ]},
    {"sequence": "LEKDYQPGITFIVVQK [_LEKDYQP(Hydroxyproline)GITFIVVQK_]", "values": [
      {"measurement": "collision cross section", "setting": "[12]", "result": "457.03 ± 0.32", "unit": "Å²"},
      {"measurement": "collision cross section", "setting": "[13]", "result": "487.95 ± 1.3", "unit": "Å²"}
    ]},
    {"sequence": "AAINQKLIETGER [_AAINQK(Trimethyl (K))LIETGER_]", "values": [
      {"measurement": "collision cross section", "setting": "[14]", "result": "420.64 ± 0.75", "unit": "Å²"},
      {"measurement": "collision cross section", "setting": "[7]", "result": "472.14 ± 3.7", "unit": "Å²"}
    ]},
    {"sequence": "LSFGLEDEPLETATK [_LSFGLEDEPLET(HexNAc (ST))ATK_]", "values": [
      {"measurement": "collision cross section", "setting": "[15]", "result": "457.66 ± 0.56", "unit": "Å²"},
      {"measurement": "collision cross section", "setting": "[9]", "result": 480.97, "unit": "Å²"}
    ]},
    {"sequence": "GSLEKGSPEDK [_GSLEK(Malonyl)GSPEDK_]", "values": [
      {"measurement": "collision cross section", "setting": "[1]", "result": "365.48 ± 0.011", "unit": "Å²"}
    ]},
    {"sequence": "VLPSITTEILK [_VLPS(HexNAc (ST))ITTEILK_]", "values": [
      {"measurement": "collision cross section", "setting": "[15]", "result": 396.57, "unit": "Å²"}
    ]},
    {"sequence": "ITESVAETAQTIKK [_ITESVAETAQTIK(Dimethyl (K))K_]", "values": [
      {"measurement": "collision cross section", "setting": "[4]", "result": "449.13 ± 1.2", "unit": "Å²"},
      {"measurement": "collision cross section", "setting": "[5]", "result": "499.12 ± 1.6", "unit": "Å²"}
    ]},
    {"sequence": "VGVEVPDVNIEGPEGKLK [_VGVEVPDVNIEGPEGK(hydroxyisobutyryl)LK_]", "values": [
      {"measurement": "collision cross section", "setting": "[10]", "result": "459.37 ± 1.3", "unit": "Å²"}
    ]},
    {"sequence": "PSVGSQSNQAGQGKR [_PSVGSQSNQAGQGK(Acetyl (K))R_]", "values": [
      {"measurement": "collision cross section", "setting": "[11]", "result": "409.31 ± 3.1", "unit": "Å²"},
      {"measurement": "collision cross section", "setting": "charge state: 3, modification: Acetyl (K)", "result": "465.77 ± 2.3", "unit": "Å²"}
    ]},
    {"sequence": "SDDESSQKDIK [_SDDESSQK(Trimethyl (K))DIK_]", "values": [
      {"measurement": "collision cross section", "setting": "[14]", "result": "380.2 ± 1.7", "unit": "Å²"},
      {"measurement": "collision cross section", "setting": "[7]", "result": "430.76 ± 2.7", "unit": "Å²"}
    ]},
    {"sequence": "GLPGEKGER [_GLP(Hydroxyproline)GEKGER_]", "values": [
      {"measurement": "collision cross section", "setting": "[12]", "result": "345.98 ± 0.8", "unit": "Å²"},
      {"measurement": "collision cross section", "setting": "[13]", "result": "396.91 ± 2", "unit": "Å²"}
    ]},
    {"sequence": "TLDEILQEKK [_TLDEILQEK(hydroxyisobutyryl)K_]", "values": [
      {"measurement": "collision cross section", "setting": "[10]", "result": "386.54 ± 0.81", "unit": "Å²"}
    ]},
    {"sequence": "GFALVGVGSEASSKK [_GFALVGVGSEASSK(Malonyl)K_]", "values": [
      {"measurement": "collision cross section", "setting": "[1]", "result": "414.22 ± 0.58", "unit": "Å²"}
    ]},
    {"sequence": "FSPPSSSLQPGK [_FSPPSSS(HexNAc (ST))LQPGK_]", "values": [
      {"measurement": "collision cross section", "setting": "[15]", "result": "396.47 ± 1.2", "unit": "Å²"}
    ]}
  ]
}
